# Results reported in IntAct's records for PubMed 22705208.
# B1: Fibroblast growth factor 12 (Homo sapiens), P61328-2 (parent)
# chain: MESKEPQLKGIVTRLFSQQGYFLQMHPDGTIDGTKDENSDYTLFNLIPVGLRVVAIQGVKASLYVAMNGEGYLYSSDVFTPECKFKESVFENYYVIYSSTLYRQQESGRAWFLGLNKEGQIMKGNRVKKTKPSSHFVPKPIEVCMYREPSLHEIGEKQGRSRKSSGTPTMNGGKVVNQDST
# Variants of: B1
# Settings: with scn5a_human SCN5A
row,Variant,effect of a mutation on the interaction
1,K9E,disrupting interaction strength

# Variants of: B1
# Settings: with scn5a_human SCN5A
# Remark: another data set of the same source
row,Variant,effect of a mutation on the interaction
1,K9E,decreasing interaction strength
